T1: human SLC34A2 (human, UniProt O95436 1-690)
T1 sequence (looked up): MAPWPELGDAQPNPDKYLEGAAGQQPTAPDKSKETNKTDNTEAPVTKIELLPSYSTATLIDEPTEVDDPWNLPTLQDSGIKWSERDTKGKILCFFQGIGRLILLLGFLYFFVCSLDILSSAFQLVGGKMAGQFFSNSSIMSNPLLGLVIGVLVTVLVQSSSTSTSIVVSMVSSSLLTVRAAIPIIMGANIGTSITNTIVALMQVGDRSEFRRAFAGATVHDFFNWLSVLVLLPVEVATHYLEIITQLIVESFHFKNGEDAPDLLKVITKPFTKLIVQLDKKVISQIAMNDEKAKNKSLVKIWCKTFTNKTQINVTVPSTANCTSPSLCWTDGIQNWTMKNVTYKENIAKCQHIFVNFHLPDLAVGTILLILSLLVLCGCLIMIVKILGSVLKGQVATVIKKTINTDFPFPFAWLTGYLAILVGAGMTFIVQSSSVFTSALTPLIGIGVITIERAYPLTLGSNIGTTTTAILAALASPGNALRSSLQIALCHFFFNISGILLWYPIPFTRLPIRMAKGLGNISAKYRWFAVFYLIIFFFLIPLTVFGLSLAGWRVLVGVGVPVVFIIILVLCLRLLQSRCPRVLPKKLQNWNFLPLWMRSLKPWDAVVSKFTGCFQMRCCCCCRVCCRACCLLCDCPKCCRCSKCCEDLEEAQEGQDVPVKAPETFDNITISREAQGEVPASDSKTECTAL

T2: Cynomolgus SLC34A2 (Cynomolgus, UniProt A0A2K5UHY1 1-690)
T2 construct: whole, on cells; also called Cyno SLC34A2
T2 sequence: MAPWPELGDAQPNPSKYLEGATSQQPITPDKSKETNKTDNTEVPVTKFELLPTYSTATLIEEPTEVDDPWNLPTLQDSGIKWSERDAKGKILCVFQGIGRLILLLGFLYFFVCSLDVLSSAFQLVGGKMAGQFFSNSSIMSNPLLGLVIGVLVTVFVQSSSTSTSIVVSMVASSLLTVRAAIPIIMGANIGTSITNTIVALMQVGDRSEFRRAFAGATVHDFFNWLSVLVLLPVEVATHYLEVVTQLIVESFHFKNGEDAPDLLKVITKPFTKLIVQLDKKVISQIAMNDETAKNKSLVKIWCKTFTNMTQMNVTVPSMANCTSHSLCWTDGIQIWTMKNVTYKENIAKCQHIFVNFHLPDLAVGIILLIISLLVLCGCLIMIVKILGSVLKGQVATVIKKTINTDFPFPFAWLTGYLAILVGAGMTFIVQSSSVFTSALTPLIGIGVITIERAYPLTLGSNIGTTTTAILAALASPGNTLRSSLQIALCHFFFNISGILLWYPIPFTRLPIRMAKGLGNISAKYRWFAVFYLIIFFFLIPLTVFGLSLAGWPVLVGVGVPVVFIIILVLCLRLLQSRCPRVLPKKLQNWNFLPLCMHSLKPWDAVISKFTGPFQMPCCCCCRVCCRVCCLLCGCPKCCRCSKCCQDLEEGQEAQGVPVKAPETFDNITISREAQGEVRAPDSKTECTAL

T3: Rhesus SLC34A2 (Rhesus, UniProt F7HDA3 1-690)
T3 construct: whole, on cells
T3 sequence: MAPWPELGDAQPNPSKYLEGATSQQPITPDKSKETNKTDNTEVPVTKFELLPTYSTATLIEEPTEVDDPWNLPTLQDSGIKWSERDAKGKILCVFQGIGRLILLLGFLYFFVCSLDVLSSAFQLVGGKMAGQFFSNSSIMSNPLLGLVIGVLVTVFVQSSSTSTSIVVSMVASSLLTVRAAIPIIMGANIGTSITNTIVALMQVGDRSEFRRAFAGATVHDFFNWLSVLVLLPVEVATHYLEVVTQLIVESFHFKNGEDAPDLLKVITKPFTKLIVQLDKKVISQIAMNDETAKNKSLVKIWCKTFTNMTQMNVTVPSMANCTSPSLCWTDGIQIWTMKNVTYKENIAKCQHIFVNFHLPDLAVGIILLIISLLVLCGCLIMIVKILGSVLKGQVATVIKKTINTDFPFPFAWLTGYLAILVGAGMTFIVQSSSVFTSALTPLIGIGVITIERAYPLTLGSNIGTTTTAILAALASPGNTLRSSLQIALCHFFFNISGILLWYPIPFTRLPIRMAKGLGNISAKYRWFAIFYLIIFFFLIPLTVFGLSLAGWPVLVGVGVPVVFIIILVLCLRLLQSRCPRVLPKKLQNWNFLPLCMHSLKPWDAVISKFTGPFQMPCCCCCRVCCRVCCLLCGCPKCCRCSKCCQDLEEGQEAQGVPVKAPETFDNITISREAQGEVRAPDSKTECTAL

B1: xi87H12B7 hIgG1 (antibody, V domains shown)
VH: QVQLQQPGAEVVRPGASVKMSCKASGYTFTSYIVHWVKQPPGQGLEWIGAIYPGNGDTSYIQKFKGRATLTADKSSSTVYMQLSSLTSEDSAVYYCARGHYYGSAAWFGFWGQGTLVTVSA
VL: DILLTQSPAILSVSPGERVSFSCRASQNIGTSIHWYQQRTNDSPRLLMRYASESVSGIPSRFSGSGSGTDFTLSINSVESEDIADYYCQQSNTWPLTFGAGTKLELK
notes: chimeric, hIgG1
B2: xi94E9B12 hIgG1 (antibody, V domains shown)
VH: QVQLQQPGAELVKPGASVKMSCKASGYTFTSYNMQWVKQTYGQGLEWIGAISPGSGETSYNQNFKVKATLTADKISSTAYMQLSSLTSEDSAVYYCARAARAEGWFAYWGQGTLVTVSA
VL: DIVMTQSHKFMSTSVGDRVSITCKASQDVGHAVVWYQQKPGQFPKLLIYWASTRHAGVPDRFTGSGSGTDFTLTISNVQSEDLADYFCQQFRSIPLTFGSGTKLEIK
notes: chimeric, hIgG1
B3: xi69B11D8 hIgG1 (antibody, V domains shown)
VH: EVQLQQSGPELVKPGAAVKISCKTSGYTFTDYTMHWVRQSHGKSLEWIGGIHPNNGGTGYNQKLRGKATLTVDKSSSTAYMELRSLTSDDSAVYYCARGRESDGWFTYWGQGTLVTFSA
VL: DVHMTQTTSSLSASLGDRVTITCSASQGIGNSLNWYQQQPDGTVKLLIYYTSRLHSGVPSRFSGSGSGTDYSLTISNLEPEDLATYYCQQYSRFPPTFGGGTKLEIK
notes: chimeric, hIgG1
B4: xi94B10A8 hIgG1 (antibody, V domains shown)
VH: QVQLQQTGAELVKPGASVKMSCKASGYTFTGYIIHWIKQRPGQGLEWIGAIYPGNGDTSYNQKIKGRATLTADKSSTTAYMQLSSLTSEDSAVYYCARGDYGNPAWFAYWGQGTLVTVSA
VL: DVVLTQSPATLSVTPGDRVSLSCRASQSISNYLYWYQQKAHESPRLLIKFASQSISGIPSRFRGSGSGTDFTLSINSVETEDFGMYFCQQSNKWPLTFGAGTKLELK
notes: chimeric, hIgG1
B5: xi78D1B10 hIgG1 (antibody, V domains shown)
VH: QVQLQQPGADLVKPGASVKLSCKASGFTFTSYIIHWVKQTPGQGLEWIGAIYPGNGDTSYIQKFKGRATLTADKSSTTAYMQLGGLTSEDSAVYYCARGTYGSSAWFVYWGQGTLVTVSA
VL: DIVLTQSPATLSVTPGDSVSLSCRASQSISNNLYWYQQKSHESPRLLIKYASQSISGIPSRFRGSGSGTDFTLSINSVETEDFGMYFCQQSNSWPLTFGAGTKLELK
notes: chimeric, hIgG1

Tests used:
[1] = target: T1, human SLC34A2; test: cell-based or functional assay
[2] = target: T1, human SLC34A2; test: FACS, OVCAR3 cells
In short: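 Flow cytometry binding: cells (OVCAR3, or HEK293 transfected with human SLC34A2) exposed 60 min at 4° C to chimeric hIgG1, 8-point 4-fold series starting 200 nM. Washed, stained 30 min at 4° C with fluorescent anti-human secondary, then analysed.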

[3] = target: T1, human SLC34A2; test: cell-based or functional assay; remark: listed apart in the source
[4] = target: T1, human SLC34A2; test: FACS, HEK293/human SLC34A2 cells
Experimental: Briefly, OVCAR3 cells or HEK293 cells expressing human SLC34A2 were incubated with chimeric antibodies (from 200 nM, 4 folds dilution, 8 points). After incubation at 4° C. for 60 minutes, the cells were washed with FACS buffer twice, then stained with fluorescent conjugated secondary antibody at 4° C. for 30 minutes. After that the cells were washed twice and analyzed by flow cytometry.

[5] = target: T2, Cynomolgus SLC34A2; test: FACS, cells expressing Cynomolgus SLC34A2
[6] = target: T1, human SLC34A2; test: FACS, RMG-1 cells
Experimental: Based on the foregoing cell-based binding results, some of the chimeric antibodies were selected for further cell based binding on human SLC34A2 expressing cells using flow cytometry. RMG-1 cells were incubated with the selected chimeric antibodies (from 200 nM, 4 folds dilution, 8 points). After incubation at 4° C. for 60 minutes, the cells were washed with FACS buffer twice, then stained with fluorescent conjugated secondary antibody at 4° C. for 30 minutes. Afterwards the cells were washed twice and analyzed by flow cytometry.

[7] = target: T3, Rhesus SLC34A2; test: FACS, HEK293/Rhesus SLC34A2 cells
Experimental: Briefly, the Rhesus SLC34A2 expressing HEK293 engineering cells (HEK293/Rhesus_SLC34A2) were incubated with chimeric Abs (from 200 nM, 4 folds dilution, 8 points). After incubation at 4° C. for 60 minutes, the cells were washed with FACS buffer twice, then stained with fluorescent conjugated secondary antibody at 4° C. for 30 minutes. After that the cells were washed twice and analyzed by flow cytometry.

Binder	cytotoxicity EC50 [1] [nM]	cytotoxicity Inhibition % [1] [%]	EC50 [2] [nM]	Top (MFI) [2] [MFI]	ADCC reporter EC50 [3] [nM]	ADCC reporter Top (MFI) [3] [MFI]	EC50 [4] [nM]	Top (MFI) [4] [MFI]	EC50 [5] [nM]	Top (MFI) [5] [MFI]	EC50 [6] [nM]	Top (MFI) [6] [MFI]	EC50 [7] [nM]	Top (MFI) [7] [MFI]
B1	0.35	82.6	5.43	27800	5.1	195000	1.62	44900	7.66	4710	9.11	9660	2.85	18300
B2	0.85	83.6	11	46200	3.3	382000	2.48	106000	2.51	3580	9.05	10000	2.38	18700
B3	0.67	86.9	2.12	27700	2.7	216000	1.19	48000	88.3	2570	1.7	9200	1.68	11600
B4	0.7	97.5	1.57	39600	4	486000	1.17	91300	5.47	3150	2.58	9370	2.24	13700
B5	0.5	94	2.52	27500	2.6	212000	1.26	47700	1.5	4400	2.1	9860	1.58	16000

— patent US20240301052A1 (LANOVA MEDICINES DEVELOPMENT, published 2024)
